Assay results from the supplement of paper PMC11246515.
± gives the standard deviation of the averaged measurements.

Experiment: total protein half-life in vivo (active degradation + dilution); higher = more stable protein
[1] = E. coli NCM3722 delta-clpP, growth: N-lim chemostat, doubling time 6 h
[2] = E. coli NCM3722 delta-lon, growth: N-lim chemostat, doubling time 6 h
[3] = wild type E. coli NCM3722, growth: C-lim chemostat, doubling time 3 h
[4] = wild type E. coli NCM3722, growth: C-lim chemostat, doubling time 6 h
[5] = wild type E. coli NCM3722, growth: N-lim chemostat, doubling time 6 h
[6] = E. coli NCM3722 delta-clpP delta-lon delta-hslV, growth: N-lim chemostat, doubling time 6 h
[7] = E. coli NCM3722 delta-hslV, growth: N-lim chemostat, doubling time 6 h
[8] = wild type E. coli NCM3722, growth: C-lim chemostat, doubling time 12 h
[9] = wild type E. coli NCM3722, growth: N-lim chemostat, doubling time 12 h
[10] = wild type E. coli NCM3722, growth: P-lim chemostat, doubling time 6 h
[11] = wild type E. coli NCM3722, growth: P-lim chemostat, doubling time 12 h
[12] = E. coli NCM3722 delta-smpB, growth: N-lim chemostat, doubling time 6 h

| Sequence | total protein half-life in vivo [1] | total protein half-life in vivo [2] | total protein half-life in vivo [3] | total protein half-life in vivo [4] | total protein half-life in vivo [5] | total protein half-life in vivo [6] | total protein half-life in vivo [7] | total protein half-life in vivo [8] | total protein half-life in vivo [9] | total protein half-life in vivo [10] | total protein half-life in vivo [11] | total protein half-life in vivo [12] |
| --- | --- | --- | --- | --- | --- | --- | --- | --- | --- | --- | --- | --- |
| MTHIRIEKGTGGWGGPLELKATPGKKIVYITAGTRPAIVDKLAQLTGWQAIDGFKEGEPAEAEIGVAVIDCGGTLRCGIYPKRRIPTINIHSTGKSGPLAQYIVEDIYVSGVKEENITVVGDATPQPSSVGRDYDTSKKITEQSDGLLAKVGMGMGSTVAVLFQSGRDTIDTVLKTILPFMAFVSALIGIIMASGLGDWIAHGLAPLASHPLGLVMLALICSFPLLSPFLGPGAVIAQVIGVLIGVQIGLGNIPPHLALPALFAINAQAACDFIPVGLSLAEARQDTVRVGVPSVLVSRFLTGAPTVLIAWFVSGFIYQ | 5.44 h | 5.5 h | 2.06 ± 0.099 h | 4.93 h | 4.5 h |  |  |  |  |  |  |  |
| MNLSLRRSTSALLASSLLLTIGRGATLPFMTIYLSRQYSLSVDLIGYAMTIALTIGVVFSLGFGILADKFDKKRYMLLAITAFASGFIAITLVNNVTLVVLFFALINCAYSVFATVLKAWFADNLSSTSKTKIFSINYTMLNIGWTIGPPLGTLLVMQSINLPFWLAAICSAFPMLFIQIWVKRSEKIIATETGSVWSPKVLLQDKALLWFTCSGFLASFVSGAFASCISQYVMVIADGDFAEKVVAVVLPVNAAMVVTLQYSVGRRLNPANIRALMTAGTLCFVIGLVGFIFSGNSLLLWGMSAAVFTVGEIIYAPGEYMLIDHIAPPEMKASYFSAQSLGWLGAAINPLVSGVVLTSLPPSSLFVILALVIIAAWVLMLKGIRARPWGQPALC |  |  | 1.77 h |  |  |  |  |  |  |  |  |  |
| MRFVDEYRAPEQVMQLIEHLRERASHLSYTAERPLRIMEVCGGHTHAIFKFGLDQLLPENVEFIHGPGCPVCVLPMGRIDTCVEIASHPEVIFCTFGDAMRVPGKQGSLLQAKARGADVRIVYSPMDALKLAQENPTRKVVFFGLGFETTMPTTAITLQQAKARDVQNFYFFCQHITLIPTLRSLLEQPDNGIDAFLAPGHVSMVIGTDAYNFIASDFHRPLVVAGFEPLDLLQGVVMLVQQKIAAHSKVENQYRRVVPDAGNLLAQQAIADVFCVNGDSEWRGLGVIESSGVHLTPDYQRFDAEAHFRPAPQQVCDDPRARCGEVLTGKCKPHQCPLFGNTCNPQTAFGALMVSSEGACAAWYQYRQQESEA | 3.17 ± 0.086 h | 2.92 ± 0.14 h | 2.32 ± 0.034 h | 3.94 ± 0.33 h | 2.2 h | 5.73 h | 2.4 h | 5.53 ± 0.43 h | 2.79 h | 3.08 h | 5.78 h |  |
| MMKMRWLSAAVMLTLYTSSSWAFSIDDVAKQAQSLAGKGYETPKSNLPSVFRDMKYADYQQIQFNHDKAYWNNLKTPFKLEFYHQGMYFDTPVKINEVTATAVKRIKYSPDYFTFGDVQHDKDTVKDLGFAGFKVLYPINSKDKNDEIVSMLGASYFRVIGAGQVYGLSARGLAIDTALPSGEEFPRFKEFWIERPKPTDKRLTIYALLDSPRATGAYKFVVMPGRDTVVDVQSKIYLRDKVGKLGVAPLTSMFLFGPNQPSPANNYRPELHDSNGLSIHAGNGEWIWRPLNNPKHLAVSSFSMENPQGFGLLQRGRDFSRFEDLDDRYDLRPSAWVTPKGEWGKGSVELVEIPTNDETNDNIVAYWTPDQLPEPGKEMNFKYTITFSRDEDKLHAPDNAWVQQTRRSTGDVKQSNLIRQPDGTIAFVVDFTGAEMKKLPEDTPVTAQTSIGDNGEIVESTVRYNPVTKGWRLVMRVKVKDAKKTTEMRAALVNADQTLSETWSYQLPANE |  | 6.34 ± 0.17 h | 3.25 ± 0.11 h | 6.12 ± 0.11 h | 6.43 ± 0.094 h | 6.373 ± 0.046 h | 6.94 ± 1 h | 12.4 ± 0.37 h | 12.6 ± 0.2 h | 6.37 ± 0.39 h | 12.9 ± 0.14 h | 5.91 ± 0.29 h |
| MIKKIGVLTSGGDAPGMNAAIRGVVRSALTEGLEVMGIYDGYLGLYEDRMVQLDRYSVSDMINRGGTFLGSARFPEFRDENIRAVAIENLKKRGIDALVVIGGDGSYMGAMRLTEMGFPCIGLPGTIDNDIKGTDYTIGFFTALSTVVEAIDRLRDTSSSHQRISVVEVMGRYCGDLTLAAAIAGGCEFVVVPEVEFSREDLVNEIKAGIAKGKKHAIVAITEHMCDVDELAHFIEKETGRETRATVLGHIQRGGSPVPYDRILASRMGAYAIDLLLAGYGGRCVGIQNEQLVHHDIIDAIENMKRPFKGDWLDCAKKLY [P0A796] | 3.9 ± 0.11 h | 4.146 ± 0.0074 h | 3 ± 0.15 h | 5.83 ± 0.099 h | 3.64 ± 0.18 h | 4.43 ± 0.51 h | 4.03 ± 0.12 h | 10.3 ± 0.71 h | 5.77 ± 0.15 h | 5.69 ± 0.36 h | 11.7 ± 0.9 h | 3.89 ± 0.13 h |
| MPDQTQQFSFKVLTINIHKGFTAFNRRFILPELRDAVRTVSADIVCLQEVMGAHEVHPLHVENWPDTSHYEFLADTMWSDFAYGRNAVYPEGHHGNAVLSRYPIEHYENRDVSVDGAEKRGVLYCRIVPPMTGKAIHVMCVHLGLREAHRQAQLAMLAEWVNELPDGEPVLVAGDFNDWRQKANHPLKVQAGLDEIFTRAHGRPARTFPVQFPLLRLDRIYVKNASASAPTALPLRTWRHLSDHAPLSAEIHL [P0AAW1] | 6.2 ± 0.43 h | 5.85 ± 0.22 h | 2.68 ± 0.41 h | 4.96 ± 0.51 h | 5.11 ± 0.57 h | 6.17 ± 0.23 h |  | 10.9 ± 3 h | 13.9 ± 0.67 h | 5.16 ± 0.24 h | 11.5 ± 0.52 h | 5.57 ± 0.47 h |
| MLNERQLKIVDLLEQQPRTPGELAQQTGVSGRTILRDIDYLNFTLNGKARIFASGSAGYQLEIFERRSFFQLLQKHDNDDRLLALLLLNTFTPRAQLASALNLPETWVAERLPRLKQRYERTCCLASRPGLGHFIDETEEKRVILLANLLRKDPFLIPLAGITRDNLQHLSTACDNQHRWPLMQGDYLSSLILAIYALRNQLTDEWPQYPGDEIKQIVEHSGLFLGDNAVRTLTGLIEKQHQQAQVISADNVQGLLQRVPGIASLNIIDAQLVENITGHLLRCLAAPVWIAEHRQSSMNNLKAAWPAAFDMSLHFITLLREQLDIPLFDSDLIGLYFACALERHQNERQPIILLSDQNAIATINQLAIERDVLNCRVIIARSLSELVAIREEIEPLLIINNSHYLLDDAVNNYITVKNIITAAGIEQIKHFLATAFIRQQPERFFSAPGSFHYSNVRGESWQHITRQICAQLVAQHHITADEAQRIIAREGEGENLIVNRLAIPHCWSEQERRFRGFFITLAQPVEVNNEVINHVLIACAAADARHELKIFSYLASILCQHPAEIIAGLTGYEAFMELLHKG |  |  |  |  |  | 6.57 h |  |  |  |  |  |  |
| MTLQQQIIKALGAKPQINAEEEIRRSVDFLKSYLQTYPFIKSLVLGISGGQDSTLAGKLCQMAINELRLETGNESLQFIAVRLPYGVQADEQDCQDAIAFIQPDRVLTVNIKGAVLASEQALREAGIELSDFVRGNEKARERMKAQYSIAGMTSGVVVGTDHAAEAITGFFTKYGDGGTDINPLYRLNKRQGKQLLAALACPEHLYKKAPTADLEDDRPSLPDEVALGVTYDNIDDYLEGKNVPQQVARTIENWYLKTEHKRRPPITVFDDFWKK | 5.28 ± 1.6 h | 5.15 ± 0.71 h | 3.37 ± 0.64 h | 6.28 ± 0.098 h | 4.67 ± 0.63 h | 4.93 ± 0.19 h | 4.91 ± 0.29 h | 11.06 ± 0.038 h | 7.98 ± 0.17 h | 5.737 ± 0.042 h | 11.6 ± 0.31 h | 4.58 ± 0.013 h |
| MTQPLFLIGPRGCGKTTVGMALADSLNRRFVDTDQWLQSQLNMTVAEIVEREEWAGFRARETAALEAVTAPSTVIATGGGIILTEFNRHFMQNNGIVVYLCAPVSVLVNRLQAAPEEDLRPTLTGKPLSEEVQEVLEERDALYREVAHIIIDATNEPSQVISEIRSALAQTINC [P0A6E1] | 5.49 ± 2.4 h | 2.9 ± 0.18 h | 2.43 ± 0.067 h | 5.25 ± 0.8 h | 2.59 ± 0.29 h | 4.64 ± 0.55 h | 2.62 ± 0.031 h | 7.3 ± 0.53 h | 3.99 ± 0.094 h | 3.9 ± 0.047 h | 8.17 ± 0.78 h | 2.42 ± 0.11 h |
| MENKYSRLQISIHWLVFLLVIAAYCAMEFRGFFPRSDRPLINMIHVSCGISILVLMVVRLLLRLKYPTPPIIPKPKPMMTGLAHLGHLVIYLLFIALPVIGLVMMYNRGNPWFAFGLTMPYASEANFERVDSLKSWHETLANLGYFVIGLHAAAALAHHYFWKDNTLLRMMPRKRS [P0ABE5] | 5.78 h |  | 2.81 ± 0.06 h | 5.31 h |  | 7.28 h | 6.32 h | 14.8 h | 10.6 h |  | 11.9 h | 5.9 h |
| MINVQNVSKTFILHQQNGVRLPVLNRASLTVNAGECVVLHGHSGSGKSTLLRSLYANYLPDEGQIQIKHGDEWVDLVTAPARKVVEIRKTTVGWVSQFLRVIPRISALEVVMQPLLDTGVPREACAAKAARLLTRLNVPERLWHLAPSTFSGGEQQRVNIARGFIVDYPILLLDEPTASLDAKNSAAVVELIREAKTRGAAIVGIFHDEAVRNDVADRLHPMGASS |  |  |  |  |  |  |  |  |  | 0.0732 h | 0.788 ± 0.69 h |  |
| MSLTLTLTGTGGAQGVPAWGCECAACARARRSPQYRRQPCSGVVKFNDAITLIDAGLHDLADRWSPGSFQQFLLTHYHMDHVQGLFPLRWGVGDPIPVYGPPDEQGCDDLFKHPGLLDFSHTVEPFVVFDLQGLQVTPLPLNHSKLTFGYLLETAHSRVAWLSDTAGLPEKTLKFLRNNQPQVMVMDCSHPPRADAPRNHCDLNTVLALNQVIRSPRVILTHISHQFDAWLMENALPSGFEVGFDGMEIGVA | 4.09 ± 0.048 h | 4.56 ± 0.17 h | 2.37 h | 4.07 h | 4.3 h | 6.78 h | 4.36 ± 0.11 h | 9.33 ± 0.34 h | 7.1 h | 4.41 h | 8.54 ± 2.5 h | 4.8 h |
